Test [1] concerns the target Chloroflexus aurantiacus succinate dehydrogenase (CaSDH) monomer of SdhA, SdhB and SdhC (Chloroflexus aurantiacus J-10-fl (endogenous)). In words: native gel or EMSA. (A gel shift assay detects complexes by their altered migration in electrophoresis.)
For test [2] the target is unchanged. In words: cryo-EM structure.

One may read the stoichiometry N as the number of molecules, sites or subunits per partner or assembly. In the case of “Chloroflexus aurantiacus succinate dehydrogenase (CaSDH) monomer of SdhA, SdhB and SdhC (complex)”, the stoichiometry N in test [1] and in test [2] was 3 throughout.

The record behind these values is publication PMC12663545.
